For this assay, the target named is 8H9 antigen (human) (UniProt Q5ZPR3). Briefly: cell-based or functional assay.
UniProt Q5ZPR3, sequence (Q5ZPR3 29-534): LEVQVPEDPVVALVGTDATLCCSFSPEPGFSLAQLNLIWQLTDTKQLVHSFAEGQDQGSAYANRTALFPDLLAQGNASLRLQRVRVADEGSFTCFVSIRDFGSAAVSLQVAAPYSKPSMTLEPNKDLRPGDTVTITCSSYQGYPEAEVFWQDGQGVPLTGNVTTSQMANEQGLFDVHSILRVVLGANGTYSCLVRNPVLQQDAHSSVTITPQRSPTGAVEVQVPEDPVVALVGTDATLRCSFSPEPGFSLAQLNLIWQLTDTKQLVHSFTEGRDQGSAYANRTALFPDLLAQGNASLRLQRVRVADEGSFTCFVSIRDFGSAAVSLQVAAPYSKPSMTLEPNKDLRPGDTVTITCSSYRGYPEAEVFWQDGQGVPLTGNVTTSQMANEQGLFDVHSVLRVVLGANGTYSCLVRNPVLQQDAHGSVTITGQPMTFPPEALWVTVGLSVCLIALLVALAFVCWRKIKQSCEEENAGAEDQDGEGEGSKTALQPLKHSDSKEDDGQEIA

With 8H9(scFv)-PE38, the IC50 of 8H9(Fv)-PE38 (ng/ml) on BT-474 cells amounted to 20 ng/mL, the IC50 of 8H9(Fv)-PE38 (ng/ml) on CRL1427 (MG63) cells turned out to be 50 ng/mL, the IC50 of 8H9(Fv)-PE38 (ng/ml) on LAN-1 cells worked out at 12.5 ng/mL and the IC50 of 8H9(Fv)-PE38 (ng/ml) on MCF-7 cells came out at 5 ng/mL. This substance also returned an IC50 of 8H9(Fv)-PE38 (ng/ml) on NMB-7 cells of 9 ng/mL, an IC50 of 8H9(Fv)-PE38 (ng/ml) on OHS-M1 cells of 20 ng/mL, an IC50 of 8H9(Fv)-PE38 (ng/ml) on SK-N-BE(2) cells of 90 ng/mL and an IC50 of 8H9(Fv)-PE38 (ng/ml) on U2OS cells of 30 ng/mL. The substance further showed an IC50 of 8H9(Fv)-PE38 (ng/ml) on ZR-75-1 cells of 35 ng/mL.
